From article PMC10762086, “Non-canonical interplay between glutamatergic NMDA and dopamine receptors shapes synaptogenesis” (Nature Communications, 2024)

Biological target: GluN1 subunit-containing NMDAR (GluN1-NMDAR), tagged GluN1 expressed at the surface of hippocampal neurons (UniProt P35439 19-938, Only the defined, expressed GluN1 subunit is built: it carries the D1R interaction through its C1 cassette. The canonical 938-aa form is taken as the C1-containing GluN1-1a; the exact splice form is n)
Assay: multidimensional spectral single molecule localization microscopy (MS-SMLM; two-colour quantum-dot single-particle tracking); live cultured hippocampal neurons (immature DIV 7-9; mature DIV 15 and above), surface receptors labelled by antibodies against extracellular tags and Qd-655 / Qd-705; 1000 frames of 50 ms (20 Hz), 37 °C; receptors counted as interacting when their distance fell below 100 nm; Koff estimated …
Conditions: partners not purified

B1: dopamine receptor 1 wild-type (D1R-wt), extracellularly tagged, expressed in hippocampal neurons (receptor, UniProt P18901 1-446, looked up)
chain: MAPNTSTMDEAGLPAERDFSFRILTACFLSLLILSTLLGNTLVCAAVIRFRHLRSKVTNFFVISLAVSDLLVAVLVMPWKAVAEIAGFWPLGPFCNIWVAFDIMCSTASILNLCVISVDRYWAISSPFQYERKMTPKAAFILISVAWTLSVLISFIPVQLSWHKAKPTWPLDGNFTSLEDTEDDNCDTRLSRTYAISSSLISFYIPVAIMIVTYTSIYRIAQKQIRRISALERAAVHAKNCQTTAGNGNPVECAQSESSFKMSFKRETKVLKTLSVIMGVFVCCWLPFFISNCMVPFCGSEETQPFCIDSITFDVFVWFGWANSSLNPIIYAFNADFQKAFSTLLGCYRLCPTTNNAIETVSINNNGAVVFSSHHEPRGSISKDCNLVYLIPHAVGSSEDLKKEEAGGIAKPLEKLSPALSVILDYDTDVSLEKIQPVTHSGQHST
notes: dopamine D1 receptor; also called dopamine D1 receptor; source: cultured rat hippocampal neurons, transfected (calcium phosphate), on live cells; not shown: extracellular tag (GFP or Flag)
koff: 13 ± 0.7 s⁻¹
